Experimental data reported in PMC2584968.

Target: three-disulphide variant of core gp120 (HXBc2) (HIV-1 (HXBc2))
Experiment: SPR

Substance: CD4-induced antibody 17b
- fold increase in on-rate (through stabilization): 95 fold
